Holding throughout (assay): potentiometry
For series [1], the target named is Cterm29 (position 29, KGGKAH-----). As to conditions: 298 K; 0.1 M NaClO4; none (4 mM HClO4 / 100 mM NaClO4); metal-free peptide, 0.5 mM, disordered.
Series [2] addresses Glu5 (position 5, -…). As to conditions: 298 K; 0.1 M NaClO4; none (4 mM HClO4 / 100 mM NaClO4); metal-free peptide, 0.5 mM, disordered.
Series [3] has as its target Nterm1 (position 1, -----HNKQEG). As to conditions: 298 K; 0.1 M NaClO4; none (4 mM HClO4 / 100 mM NaClO4); metal-free peptide, 0.5 mM, disordered.
The target of series [4] is Glu3 (position 3, ---KQEGRDHD). As to conditions: 298 K; 0.1 M NaClO4; none (4 mM HClO4 / 100 mM NaClO4); metal-free peptide, 0.5 mM, disordered.
Series [5] has as its target Nterm1 (position 1, -----KQEGRD). As to conditions: 298 K, 0.1 M NaClO4, none (4 mM HClO4 / 100 mM NaClO4).
Series [6] concerns the target Cterm15 (position 15, SKGHFH-----). As to conditions: 298 K; 0.1 M NaClO4; none (4 mM HClO4 / 100 mM NaClO4); metal-free peptide, 0.5 mM, disordered.
Series [7] has as its target Lys1 (position 1, -----KQEGRD). As to conditions: 298 K; 0.1 M NaClO4; none (4 mM HClO4 / 100 mM NaClO4); Zn(II)-bound peptide, mononuclear complex, Zn:peptide 1:1 (supplement captions state 0.9:1), peptide 0.5 mM.
For series [8], the target named is Lys11 (position 11, …-). As to conditions: 298 K; 0.1 M NaClO4; none (4 mM HClO4 / 100 mM NaClO4); Zn(II)-bound peptide, mononuclear complex, Zn:peptide 1:1 (supplement captions state 0.9:1), peptide 0.5 mM.
For series [9], the target named is Lys9 (position 9, …). As to conditions: 298 K; 0.1 M NaClO4; none (4 mM HClO4 / 100 mM NaClO4); Zn(II)-bound peptide, mononuclear complex, Zn:peptide 1:1 (supplement captions state 0.9:1), peptide 0.5 mM.
Where [10] appears, read: metal-free peptide, 0.5 mM, disordered.

B1: SgI-29, 29-residue fragment of semenogelin I (Homo sapiens) (peptide)
chain: HNKQEGRDHDKSKGHFHRVVIHHKGGKAH
As a reminder, the pKa is the pH at which an ionisable group is half protonated. For B1, the pKa in series [1] was determined as 2.18; in [2] it was 3.74; in series [3], 9.45.

B2: SgIIA (SgII peptide A), 29-residue fragment of semenogelin II (Homo sapiens) (peptide)
chain: KQEGRDHDKSKGHFHMIVIHHKGGQAHHG
With B2, the pKa is 4.26 in series [4] and 9.47 in series [5] (setting [10]).

B3: Sg-15, 15-residue fragment common to semenogelin I and semenogelin II (Homo sapiens) (peptide)
chain: KQEGRDHDKSKGHFH
Consider B3, for which the pKa in [6] came out at 2.34; in [4], 4.36; in [7], 9.52; in series [8], 10.59; in [9] it was 10.40; in series [5] (Cu(II)-bound peptide, mononuclear complex, Cu:peptide 1:1 (supplement captions state 0.9:1), peptide 0.5 mM), 6.82. The pKa in series [5] (Zn(II)-bound peptide, mononuclear complex, Zn:peptide 1:1 (supplement captions state 0.9:1), peptide 0.5 mM) stood at 6.88; in [5] (setting [10]), 7.58.

(Values after publication PMC10466376.)
